We go through two molecules from US20250179143A1, “SYSTEMS AND METHODS FOR CHAPERONE-MEDIATED LIGAND EXCHANGE ON MHC-I AND MHC-RELATED MOLECULES USING CHICKEN TAPBPR” (priority 2022, published 2025).

For assay [1], the target named is 96 HLA-I allotypes on single antigen beads (SABs). Nature of the assay: SAB tetramer assay, ratio to W6/32 control.
For assay [2], the target named is peptide-deficient (empty) HLA-B*37:01/hb2m (human). Nature of the assay: SPR, TAPBPR-biotin on streptavidin chip, UV-irradiated (empty) HLA as analyte. The settings on record: remark: other sources report otherwise.

One may read the Kd as the free concentration of one partner at which half of the binding sites on the other are occupied at equilibrium, for simple one-to-one binding. A higher Kd goes with weaker binding.

B1: mouse TAPBPR luminal domain (moTAPBPR) (protein, UniProt Q8VD31 21-412, looked up)
chain: TDPPTAPTTAERQRQPTDIILDCFLVTEDRHRGAFASSGDRERALLVLKQVPVLDDGSLEGITDFQGSTETKQDSPVIFEASVDLVQIPQAEALLHADCSGKAVTCEISKYFLQARQEATFEKAHWFISNMQVSRGGPSVSMVMKTLRDAEVGAVRHPTLNLPLSAQGTVKTQVEFQVTSETQTLNHLLGSSVSLHCSFSMAPGLDLTGVEWRLQHKGSGQLVYSWKTGQGQAKRKGATLEPEELLRAGNASLTLPNLTLKDEGNYICQISTSLYQAQQIMPLNILAPPKIQLHLANKDPLPSLVCSIAGYYPLDVGVTWIREELGGIPAQVSGASFSSLRQSTMGTYSISSTVMADPGPTGATYTCQVAHVSLEEPLTTSMRVLPNPEQRG
B1: the MFI ratio in assay [1] was less than 5.8.

B2: human TAPBPR luminal domain (hTAPBPR), Q9BX59 22-405 (protein)
chain: KPHPAEGQWRAVDVVLDCFLAKDGAHRGALASSEDRARASLVLKQVPVLDDGSLEDFTDFQGGTLAQDDPPIIFEASVDLVQIPQAEALLHADCSGKEVTCEISRYFLQMTETTVKTAAWFMANMQVSGGGPSISLVMKTPRVTKNEALWHPTLNLPLSPQGTVRTAVEFQVMTQTQSLSFLLGSSASLDCGFSMAPGLDLISVEWRLQHKGRGQLVYSWTAGQGQAVRKGATLEPAQLGMARDASLTLPGLTIQDEGTYICQITTSLYRAQQIIQLNIQASPKVRLSLANEALLPTLICDIAGYYPLDVVVTWTREELGGSPAQVSGASFSSLRQSVAGTYSISSSLTAEPGSAGATYTCQVTHISLEEPLGASTQVVPPERR
In assay [2], B2 returned a dissociation constant Kd of 7.02 µM.
